Reference: PMC8439434 (2021)
Where two headings read alike, the source gives them in different places.

Tests used:
[1] = molecular target: HLA-C*07:01 purified from the Steinlin EBV transformed homozygous cell line (human (endogenous in the Steinlin EBV …))
[2] = molecular target: T1, HLA-B*08:01 (human (endogenous in the Steinlin EBV …))
[3] = molecular target: T1, HLA-B*08:01; remark: listed apart in the source

Row | Binder | IC50 [1] [µM] | IC50 [2] [µM] | IC50 [3] [µM]
1 | SRGTSPARM [SARS-CoV-2 nucleocapsid peptide SRGTSPARM (R203/G204)] | > 50 | > 50 | –
2 | IRSSYIRVL [peptide 3424.0028 (IRSSYIRVL, DNA replication licensing factor MCM5 289-297)] | – | – | 0.301
